Experimental data as given in paper PMC8962422.

Molecular target: CM19XA (UniProt P15391)
Assay: SEC; ENrich SEC 650 column on an NGC system, running buffer PBS, peak positions compared with BioRad size exclusion standards; after Ni-NTA purification

stoichiometry N: 2
Substance: CM19XA (from UniProt P15391 20-291; Q9Y624 28-238)
